# System: Escherichia coli TOP10
# Experiment: shrunken log2 fold change of peptide-encoding DNA abundance (4.5 h post-induction vs induction); higher = less antimicrobial activity (less host growth inhibition)
# Settings: time post-induction: 4.5 h; library: site-saturation at positions 5, 18, 19, 20
# 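Further: peptides expressed intracellularly from a pBAD plasmid library in pooled LB shake-flask culture, induced with 0.3% L-arabinose, DNA abundance read by NGS, three biological replicates, DESeq2 with apeglm shrinkage.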
row,Sequence,shrunken log2 fold change
1,RRIRNRPPRLPRPRPRPALRPRP,0.0951
2,RRIRQRPPRLPRPRPRPCPSPRP,0.0332
3,RRIRFRPPRLPRPRPRPVYDPRP,-0.977
4,RRIRRRPPRLPRPRPRPVEIPRP,0.048
5,RRIRYRPPRLPRPRPRPRVRPRP,0.175
6,RRIRYRPPRLPRPRPRPYQHPRP,-1.87
7,RRIRQRPPRLPRPRPRPIGKPRP,0.0819
8,RRIRPRPPRLPRPRPRPEEHPRP,-0.0242
9,RRIRQRPPRLPRPRPRPSHIPRP,-0.0881
10,RRIRDRPPRLPRPRPRPAPKPRP,0.0948
11,RRIRVRPPRLPRPRPRPHSTPRP,-0.418
12,RRIRHRPPRLPRPRPRPHNFPRP,-0.0184
13,RRIRERPPRLPRPRPRPGITPRP,-0.648
14,RRIRIRPPRLPRPRPRPGPIPRP,-0.329
15,RRIRHRPPRLPRPRPRPNRTPRP,0.031
16,RRIRQRPPRLPRPRPRPELDPRP,0.0346
17,RRIRRRPPRLPRPRPRPYMLPRP,-0.685
18,RRIRWRPPRLPRPRPRPKRDPRP,0.696
19,RRIRLRPPRLPRPRPRPYLWPRP,-0.0439
20,RRIRTRPPRLPRPRPRPPEFPRP,-0.231
21,RRIRPRPPRLPRPRPRPGRMPRP,0.318
22,RRIRKRPPRLPRPRPRPMQFPRP,0.105
23,RRIRLRPPRLPRPRPRPRHGPRP,0.414

row,Sequence,shrunken log2 fold change
1,RRIRCRPPRLPRPRPRPIMGPRP,0.00854
2,RRIRERPPRLPRPRPRPNNDPRP,-0.663
3,RRIRCRPPRLPRPRPRPMRNPRP,0.185
4,RRIRCRPPRLPRPRPRPPMQPRP,0.516
5,RRIRMRPPRLPRPRPRPYLDPRP,0.107
6,RRIRRRPPRLPRPRPRPCRHPRP,-0.105
7,RRIRIRPPRLPRPRPRPFKYPRP,-0.0899
8,RRIRPRPPRLPRPRPRPIGKPRP,-0.156
9,RRIRKRPPRLPRPRPRPLLNPRP,-0.295
10,RRIRFRPPRLPRPRPRPLRRPRP,0.773
11,RRIRDRPPRLPRPRPRPIRFPRP,-0.0156
12,RRIRQRPPRLPRPRPRPLVEPRP,-0.0628
13,RRIRHRPPRLPRPRPRPHVHPRP,-0.201
14,RRIRCRPPRLPRPRPRPENDPRP,-0.0268
15,RRIRYRPPRLPRPRPRPTADPRP,-0.119
16,RRIRVRPPRLPRPRPRPLEQPRP,-0.0372
17,RRIRKRPPRLPRPRPRPGCLPRP,0.646
18,RRIRLRPPRLPRPRPRPRTLPRP,-0.166
19,RRIRARPPRLPRPRPRPLETPRP,0.9
20,RRIRVRPPRLPRPRPRPEAHPRP,0.0146
21,RRIRLRPPRLPRPRPRPSGNPRP,-0.111
22,RRIRARPPRLPRPRPRPTVSPRP,0.136
23,RRIRARPPRLPRPRPRPANQPRP,0.0465

row,Sequence,shrunken log2 fold change
1,RRIRQRPPRLPRPRPRPEWHPRP,0.33
2,RRIRERPPRLPRPRPRPAIGPRP,0.0473
3,RRIRTRPPRLPRPRPRPQCHPRP,-0.0436
4,RRIRERPPRLPRPRPRPSYIPRP,-0.216
5,RRIRMRPPRLPRPRPRPHVMPRP,-0.192
6,RRIRPRPPRLPRPRPRPDMEPRP,-0.0437
7,RRIRVRPPRLPRPRPRPGIFPRP,-0.0463
8,RRIRIRPPRLPRPRPRPVSNPRP,-0.0661
9,RRIRIRPPRLPRPRPRPSHPPRP,-0.245
10,RRIRARPPRLPRPRPRPEKWPRP,0.244
11,RRIRIRPPRLPRPRPRPISGPRP,-0.0415
12,RRIRSRPPRLPRPRPRPRGKPRP,0.0832
13,RRIRMRPPRLPRPRPRPSQFPRP,0.379
14,RRIRGRPPRLPRPRPRPWENPRP,1.02
15,RRIRFRPPRLPRPRPRPLEMPRP,-0.357
16,RRIRERPPRLPRPRPRPDRHPRP,-0.0302
17,RRIRRRPPRLPRPRPRPRQYPRP,-0.191
18,RRIRQRPPRLPRPRPRPFRDPRP,-0.117
19,RRIRMRPPRLPRPRPRPMFWPRP,0.0479
20,RRIRDRPPRLPRPRPRPTCHPRP,0.0627
21,RRIRARPPRLPRPRPRPYMGPRP,0.0124
22,RRIRSRPPRLPRPRPRPFLWPRP,-0.0904
23,RRIRRRPPRLPRPRPRPPYSPRP,0.122

row,Sequence,shrunken log2 fold change
1,RRIRERPPRLPRPRPRPKSAPRP,0.116
2,RRIRKRPPRLPRPRPRPHTFPRP,-0.309
3,RRIRKRPPRLPRPRPRPHMEPRP,0.0155
4,RRIRKRPPRLPRPRPRPCEPPRP,0.553
5,RRIRERPPRLPRPRPRPFHDPRP,-0.291
6,RRIRIRPPRLPRPRPRPDRMPRP,-0.0164
7,RRIRTRPPRLPRPRPRPNRWPRP,-0.0997
8,RRIRPRPPRLPRPRPRPIMGPRP,-0.233
9,RRIRHRPPRLPRPRPRPEKNPRP,-0.0893
10,RRIRCRPPRLPRPRPRPKWGPRP,0.496
11,RRIRSRPPRLPRPRPRPKDRPRP,0.201
12,RRIRGRPPRLPRPRPRPHSVPRP,-0.0536
13,RRIRWRPPRLPRPRPRPLHYPRP,-0.369
14,RRIRGRPPRLPRPRPRPPMFPRP,0.295
15,RRIRFRPPRLPRPRPRPPIFPRP,-0.0711
16,RRIRERPPRLPRPRPRPFGYPRP,-0.0787
17,RRIRWRPPRLPRPRPRPTYAPRP,-0.0208
18,RRIRQRPPRLPRPRPRPWLNPRP,-0.0662
19,RRIRIRPPRLPRPRPRPFELPRP,-0.138
20,RRIRARPPRLPRPRPRPEVTPRP,1.28
21,RRIRNRPPRLPRPRPRPDMPPRP,-0.244
22,RRIRKRPPRLPRPRPRPQAPPRP,0.537

# Source: the supplement of paper PMC9112550, “Optimization of the antimicrobial peptide Bac7 by deep mutational scanning” (BMC Biology, 2022)
